This is an account of results in article PMC5570900, “Exploiting a novel conformational switch to control innate immunity mediated by complement protein C3a” (Nature Communications, 2017).

A short description of one data set: Rat plasma stability. The class given is in vitro ADME. Particulars: 37 °C. Here is the method: (§1) For plasma stability studies, C3a and experimental compounds (10 μL, 1 mM in DMSO) were added to neat rat plasma (190 μL) and heated to 37 °C in a circulating water bath. Aliquots (20 µL) were collected at time points (0, 2, 5 and 10 min for C3a; 0, 5, 15, 30, 60, 120 and 240 min for other test compounds) and added directly to MeCN/H2O (80 µL, 9:1). The samples were centrifuged at 13,000 g for 3 min before supernatants were isolated and analyzed for test compound degradation via LC-MS. For liver microsomal stability studies, commercially available rat liver microsomes from Life Technologies, GIBCO were used. In brief, microsomes stored at −80 °C were slowly defrosted on ice. Test compounds (183 μL, 1 μM in 100 mM phosphate buffer pH 7.4 containing 0.1 % DMSO) were added to microsomes (5 μL) and NADPH (2 µL, 20 mM). Test solutions were heated in a circulating water bath at 37 °C for 5 min before additional cofactor NADPH (10 μL, 20 mM) was added. Aliquots (20 μL) were taken at time points (0, 5, 15, 30 and 60 min from the second addition of NADPH). Aliquots were added to MeCN/H2O (80 μL, 9:1) and centrifuged at 13,000 g for 3 min. Supernatants were analyzed for test compound degradation by LC-MSMS. Concentrations were plotted as a function of time on a semi-logarithmic graph. Rat plasma and microsomal activity was confirmed by rapid degradation of SLIGRL-NH2 (t1/2 < 5 min) in a parallel experiment.

Data set [1] in a line: Rat liver microsomal stability. Type of data set: in vitro ADME. Conditions: rat, liver microsomes, pH 7.4; parallel control experiment, 37 °C; read-out: t1/2 in rat liver microsomes. The procedure:
as §1
(In general: Liver microsomes are vesicles of endoplasmic reticulum, rich in cytochrome P450 enzymes.)

A further data set deals with T1, C5aR (Homo sapiens, UniProt P21730).
T1 construct: endogenous in cells; host or cells: primary human monocyte-derived macrophages (HMDMs)
T1 sequence (P21730 1-350): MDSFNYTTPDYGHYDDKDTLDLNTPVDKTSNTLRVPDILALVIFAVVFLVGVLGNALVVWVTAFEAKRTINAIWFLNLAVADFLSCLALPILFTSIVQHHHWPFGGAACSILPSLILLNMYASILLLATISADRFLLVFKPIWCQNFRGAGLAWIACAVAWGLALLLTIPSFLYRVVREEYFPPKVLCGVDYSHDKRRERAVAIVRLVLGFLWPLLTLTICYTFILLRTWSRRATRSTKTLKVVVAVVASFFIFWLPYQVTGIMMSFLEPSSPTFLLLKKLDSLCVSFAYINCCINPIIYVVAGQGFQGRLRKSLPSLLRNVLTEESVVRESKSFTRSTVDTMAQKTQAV
The data set is described as follows: [125I]-hC5a competition binding on HMDMs. Conditions: [125I]-hC5a 25 pM. The procedure: Receptor binding was performed by ligand competition with labelled 80 pM [^125I]-C3a or 25 pM [^125I]-C5a (2200 Ci/mmol; Perkin Elmer, Torrance, CA, USA) on HMDMs (1.2 × 10^6 cells/ml). HMDMs were treated with [^125I]-C3a or [^125I]-C5a ± various concentrations of unlabelled C3a/C5a or experimental ligands were diluted with assay buffer (50 mM Tris, 3 mM MgCl2, 0.1 mM CaCl2, 0.5% (w/v) BSA, pH 7.4) for 60 min at room temperature. Unbound [^125I]-C3a or [^125I]-C5a was removed by filtration through glass microfibre filter GF/B (Whatman Iner. Ltd, England) and washed three times with cold buffer (50 mM Tris-HCl pH 7.4). Bound [^125I]-C3a or [^125I]-C5a were assessed by scintillation counting on Microbeta counter. Specific binding was defined as the difference between total binding and nonspecific binding as determined in the presence of 1 μM unlabelled C3a or C5a[4].

The subject of data set [2] is wild-type human HEK293 cells (C3aR−/−). Kind of data set: Intracellular Ca2+ release in wild-type HEK293 cells. The class given is cell-based.
Data set [3] addresses T2, C3aR (Homo sapiens, UniProt Q16581).
T2 sequence (Q16581 1-482): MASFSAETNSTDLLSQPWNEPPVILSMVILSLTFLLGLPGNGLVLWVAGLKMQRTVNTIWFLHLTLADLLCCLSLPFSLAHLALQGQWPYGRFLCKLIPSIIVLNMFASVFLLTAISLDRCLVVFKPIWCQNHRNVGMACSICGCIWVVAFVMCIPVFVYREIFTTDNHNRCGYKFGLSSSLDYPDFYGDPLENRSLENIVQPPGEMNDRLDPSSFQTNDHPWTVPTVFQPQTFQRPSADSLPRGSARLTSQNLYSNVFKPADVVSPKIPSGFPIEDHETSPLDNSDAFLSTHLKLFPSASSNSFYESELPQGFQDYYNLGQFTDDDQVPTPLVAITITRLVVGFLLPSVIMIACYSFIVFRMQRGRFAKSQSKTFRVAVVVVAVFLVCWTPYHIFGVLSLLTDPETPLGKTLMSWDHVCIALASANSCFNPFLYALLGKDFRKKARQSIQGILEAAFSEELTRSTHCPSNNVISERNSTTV
The data set is described as follows: Histamine secretion in human LAD2 mast cells (agonist mode). Type of data set: cell-based. Also on record: Concentration-dependent histamine secretion in human LAD2 mast cells; endogenous in cells; host or cells: LAD2 human mast cells. Conditions: compound alone, 30 min, n ≥ 3, ± SEM. The procedure:
LAD2 human mast cells (kindly provided by Dr Dean Metcalfe, National Institute of Allergy and Infectious Diseases, National Institute of Health) were cultured in StemPro®-34 Serum Free Media (Invitrogen, Australia) supplemented with StemPro®-34 nutrient, 100 U/mL penicillin, 100 μg/mL streptomycin, 2 mM GlutaMAX, and 100 ng/mL human stem cell factor (SCF). Cells were hemi-depleted weekly and were not allowed to grow beyond a density of 0.5 × 10^6/mL. This cell line was authenticated by expression of tryptase and histamine granules. For the histamine assay, 1 × 10^4 cells per well were seeded in StemPro®-34 SFM in 96-well plates for 30 min before any treatments. For agonist studies, the cells were treated with compounds prepared in media for 30 min. For antagonist studies, the cells were pre-treated with compounds prepared in SFM for 30 min before addition of C3aR agonists for another 30 min. Cells were centrifuged (500 g, 5 min, 4 °C) and cell-free supernatants were collected for measuring histamine. Histamine content was measured using the histamine EIA kit according to the manufacturer’s instructions (Abnova, Taiwan). The readings were recorded on a FLUOstar Optima (BMG LabTechnologies, Offenburg, Germany).

The target of data set [4] is T2, C3aR. The data set is described as follows: Intracellular Ca2+ release in human monocyte-derived macrophages (agonist mode). Type of data set: cell-based. The arrangement: Concentration-dependent Ca^2+ release in human monocyte-derived macrophages (HMDMs); endogenous in cells; host or cells: primary human monocyte-derived macrophages (HMDMs). Particulars: HMDMs, n ≥ 3, ± SEM. The procedure:
HMDMs were isolated using Ficoll-paque density centrifugation (GE Healthcare Bio-Science, Uppsala, Sweden) from buffy coat (of anonymous human donors) provided by the Australian Red Cross Blood Service, Brisbane. CD14^+ monocytes were positively selected using CD14 MicroBeads (Miltenyi Biotech, Auburn, USA)[40], [41]. CD14^+ monocytes were differentiated to HMDMs using 100 ng/mL of recombinant human macrophage colony-stimulating factor (PeptroTech, Rocky Hill, USA) for 7 days in Iscove’s modified Dulbecco’s media supplemented with 10% fetal bovine serum, penicillin (100 U/mL), streptomycin (100 µg/mL) and L-glutamine (2 mM). HMDMs were supplemented after 5 days with fresh medium containing 10 ng/ml macrophage colony-stimulating factor and collected by gentle scraping on day 7.
HMDMs were seeded to a 96-well clear-bottom black-wall assay plate at a density of 5 × 10^4 cells per well and allowed to adhere overnight. Prior to assay, cells were incubated with dye-loading buffer (Hank’s balance salt solution (HBSS) buffer, 4 μM Fluo-3 AM, 25 μl Pluronic acid F-127 and 1% fetal bovine serum) for 1 h at 37 °C. Cells were then washed once with assay buffer (HBSS supplemented with 2.5 mM probenecid and 20 mM HEPES, pH 7.4). Intracellular calcium release was monitored using a fluorescence imaging plate reader (excitation 495 nm, emission 520 nm). The percentage responses were plotted against logarithmic concentrations of each test compound[42].

Data set [5] has as its target T2, C3aR. The data set is described as follows: Intracellular Ca2+ release in HEK293 cells transfected with C3aR. The class given is cell-based. Also on record: Concentration-dependent Ca^2+ release in human monocyte-derived macrophages (HMDMs); endogenous in cells; host or cells: primary human monocyte-derived macrophages (HMDMs). Conditions: HEK293 cells transfected with C3aR (C3aR+/+), compound alone.

On to “H-SLIGRL-NH2 [SLIGRL-NH2, reference compound]”, for which the half-life at 50 µM in “Rat plasma stability” (rat, plasma (neat), parallel control experiment, read-out: t1/2 in rat plasma) is less than 5 min. Moreover, in data set [1], the half-life at 0.915 µM is less than 5 min.

Regarding “hC3a: human complement protein C3a, 77 residue ~9 kDa helix bundle inflammatory protein”, in the data set with C5aR, the “C5aR binding by competition with [125I]-hC5a” value was “no binding”. Moreover, the results for the “Intracellular Ca2+ release” value (in data set [2]; with C3aR [5]) were “did not induce Ca^2+ release” and “did induce Ca^2+ release”, respectively. In the data set “Rat plasma stability” (neat rat plasma, over 4 h (C3a up to 10 min)), the “Stability in rat plasma” value was “degraded within minutes”. Further, the values for the EC50 with C3aR [3] and in the data set with C3aR [4] were 3 ± 1.5 nM and 8 ± 2 nM, respectively.
